Experimental data reported in paper PMC4434323.

Columns and labels:
[1] = target: T1, die-1 (C18D1.1) (Caenorhabditis elegans) (UniProt A0A131MCR4)
T1 sequence: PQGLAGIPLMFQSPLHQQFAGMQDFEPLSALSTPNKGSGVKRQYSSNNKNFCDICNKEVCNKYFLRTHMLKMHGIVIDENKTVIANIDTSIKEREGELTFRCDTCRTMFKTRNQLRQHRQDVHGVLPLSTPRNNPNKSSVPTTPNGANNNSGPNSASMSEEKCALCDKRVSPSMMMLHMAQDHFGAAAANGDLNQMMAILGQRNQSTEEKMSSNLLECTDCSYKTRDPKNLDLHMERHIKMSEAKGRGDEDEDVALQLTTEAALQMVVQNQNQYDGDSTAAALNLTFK

[2] = target: T2, ham-2 (C07A12.1) (Caenorhabditis elegans) (UniProt H2KYH4)
T2 sequence: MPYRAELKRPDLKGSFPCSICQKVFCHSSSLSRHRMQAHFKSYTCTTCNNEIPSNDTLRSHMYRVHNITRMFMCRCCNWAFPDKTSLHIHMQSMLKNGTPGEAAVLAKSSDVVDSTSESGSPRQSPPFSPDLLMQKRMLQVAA

[3] = target: T3, ztf-19 (T27B1.2) (Caenorhabditis elegans) (UniProt Q22829)
T3 sequence: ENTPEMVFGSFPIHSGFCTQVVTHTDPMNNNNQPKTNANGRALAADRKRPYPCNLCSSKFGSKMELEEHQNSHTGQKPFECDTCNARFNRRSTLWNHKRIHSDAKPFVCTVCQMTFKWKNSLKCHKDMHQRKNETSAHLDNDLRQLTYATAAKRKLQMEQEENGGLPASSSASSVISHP

[4] = target: odd-2 (C34H3.2) (Caenorhabditis elegans) (UniProt Q9N5X6)
[5] = target: egrh-1 (C27C12.2) (Caenorhabditis elegans) (UniProt Q18250)
[6] = target: T4, ZK337.2 (ZK337.2) (Caenorhabditis elegans) (UniProt O46016)
T4 sequence: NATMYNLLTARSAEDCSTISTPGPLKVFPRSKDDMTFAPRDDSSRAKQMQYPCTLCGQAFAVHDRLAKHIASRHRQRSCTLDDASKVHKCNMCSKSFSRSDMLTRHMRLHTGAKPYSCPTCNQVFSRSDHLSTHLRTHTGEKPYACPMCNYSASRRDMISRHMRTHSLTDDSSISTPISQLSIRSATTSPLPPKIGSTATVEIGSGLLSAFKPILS

[7] = target: ZC328.2 (ZC328.2) (Caenorhabditis elegans) (UniProt O02050)
[8] = target: T5, che-1 (C55B7.12) (Caenorhabditis elegans) (UniProt Q966L8)
T5 sequence: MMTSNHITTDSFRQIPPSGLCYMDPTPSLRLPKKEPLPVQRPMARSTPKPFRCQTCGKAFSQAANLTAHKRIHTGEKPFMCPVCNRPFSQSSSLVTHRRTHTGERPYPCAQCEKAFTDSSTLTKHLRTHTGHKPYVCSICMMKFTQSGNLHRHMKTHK

[9] = target: T6, ztf-29 (Y66D12A.12) (Caenorhabditis elegans) (UniProt Q95Q03)
T6 sequence: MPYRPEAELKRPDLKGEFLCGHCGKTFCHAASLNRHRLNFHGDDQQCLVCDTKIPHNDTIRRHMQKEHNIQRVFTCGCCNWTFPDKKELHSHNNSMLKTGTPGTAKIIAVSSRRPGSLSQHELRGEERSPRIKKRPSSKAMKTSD

ZC328.2 (ZC328.2) (Caenorhabditis elegans), sequence (O02050 entry or part of it): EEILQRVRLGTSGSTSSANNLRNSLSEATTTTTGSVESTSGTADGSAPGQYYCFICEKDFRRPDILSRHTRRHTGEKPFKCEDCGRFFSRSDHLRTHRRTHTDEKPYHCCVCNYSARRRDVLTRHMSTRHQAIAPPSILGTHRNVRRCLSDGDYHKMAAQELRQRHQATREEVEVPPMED
egrh-1 (C27C12.2) (Caenorhabditis elegans), sequence (Q18250 324-461): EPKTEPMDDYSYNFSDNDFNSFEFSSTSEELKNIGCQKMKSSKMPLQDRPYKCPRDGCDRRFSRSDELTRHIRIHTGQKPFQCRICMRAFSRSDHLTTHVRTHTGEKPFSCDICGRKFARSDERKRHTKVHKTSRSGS
odd-2 (C34H3.2) (Caenorhabditis elegans), sequence (Q9N5X6 74-252): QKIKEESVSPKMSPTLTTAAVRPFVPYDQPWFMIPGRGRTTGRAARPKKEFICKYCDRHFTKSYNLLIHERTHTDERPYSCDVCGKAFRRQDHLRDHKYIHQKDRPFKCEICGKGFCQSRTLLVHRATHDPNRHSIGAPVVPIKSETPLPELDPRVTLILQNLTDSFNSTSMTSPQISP

GGTTTAAA (double strand) [8-mer GGTTTAAA]
binding signal (PBM E-score (-0.5 to 0.5)) [1]: 0.484

TTAGCTAA (double strand) [8-mer TTAGCTAA]
binding signal (PBM E-score (-0.5 to 0.5)) [2]: 0.483

AGTTTAAA (double strand) [8-mer AGTTTAAA]
binding signal (PBM E-score (-0.5 to 0.5)) [3]: 0.495
binding signal (PBM E-score (-0.5 to 0.5)) [1]: 0.49

AGCTACTG (double strand) [8-mer AGCTACTG]
binding signal (PBM E-score (-0.5 to 0.5)) [4]: 0.492

ATTTTAAA (double strand) [8-mer ATTTTAAA]
binding signal (PBM E-score (-0.5 to 0.5)) [1]: 0.496

CAGTAGCC (double strand) [8-mer CAGTAGCC]
binding signal (PBM E-score (-0.5 to 0.5)) [4]: 0.492

CGCCCCCG (double strand) [8-mer CGCCCCCG]
binding signal (PBM E-score (-0.5 to 0.5)) [5]: 0.496
binding signal (PBM E-score (-0.5 to 0.5)) [6]: 0.49
binding signal (PBM E-score (-0.5 to 0.5)) [7]: 0.489

GATTTAAA (double strand) [8-mer GATTTAAA]
binding signal (PBM E-score (-0.5 to 0.5)) [1]: 0.477

AAGAAGCC (double strand) [8-mer AAGAAGCC]
binding signal (PBM E-score (-0.5 to 0.5)) [8]: 0.493

AGAAGCCC (double strand) [8-mer AGAAGCCC]
binding signal (PBM E-score (-0.5 to 0.5)) [8]: 0.491

ATGCTAAT (double strand) [8-mer ATGCTAAT]
binding signal (PBM E-score (-0.5 to 0.5)) [2]: 0.478

CCCCCACA (double strand) [8-mer CCCCCACA]
binding signal (PBM E-score (-0.5 to 0.5)) [5]: 0.489

ACGGTAGC (double strand) [8-mer ACGGTAGC]
binding signal (PBM E-score (-0.5 to 0.5)) [4]: 0.498

GGAAGCCA (double strand) [8-mer GGAAGCCA]
binding signal (PBM E-score (-0.5 to 0.5)) [8]: 0.494

ACGGAAGC (double strand) [8-mer ACGGAAGC]
binding signal (PBM E-score (-0.5 to 0.5)) [4]: 0.485

AAGGCTTC (double strand) [8-mer AAGGCTTC]
binding signal (PBM E-score (-0.5 to 0.5)) [8]: 0.494

ACTTTAAA (double strand) [8-mer ACTTTAAA]
binding signal (PBM E-score (-0.5 to 0.5)) [1]: 0.493

TAAGCTTA (double strand) [8-mer TAAGCTTA]
binding signal (PBM E-score (-0.5 to 0.5)) [2]: 0.497
binding signal (PBM E-score (-0.5 to 0.5)) [9]: 0.496

ATGGCTTC (double strand) [8-mer ATGGCTTC]
binding signal (PBM E-score (-0.5 to 0.5)) [8]: 0.495

TTTTAAAA (double strand) [8-mer TTTTAAAA]
binding signal (PBM E-score (-0.5 to 0.5)) [1]: 0.494

ATGCTTAA (double strand) [8-mer ATGCTTAA]
binding signal (PBM E-score (-0.5 to 0.5)) [2]: 0.48

GGCTTCCC (double strand) [8-mer GGCTTCCC]
binding signal (PBM E-score (-0.5 to 0.5)) [8]: 0.497

GCCCCCAC (double strand) [8-mer GCCCCCAC]
binding signal (PBM E-score (-0.5 to 0.5)) [5]: 0.486

CAGTAGCA (double strand) [8-mer CAGTAGCA]
binding signal (PBM E-score (-0.5 to 0.5)) [4]: 0.495

ACAGTAGC (double strand) [8-mer ACAGTAGC]
binding signal (PBM E-score (-0.5 to 0.5)) [4]: 0.499

AGGAAGCC (double strand) [8-mer AGGAAGCC]
binding signal (PBM E-score (-0.5 to 0.5)) [8]: 0.49

CTTTTAAA (double strand) [8-mer CTTTTAAA]
binding signal (PBM E-score (-0.5 to 0.5)) [1]: 0.47

ATTTAAAC (double strand) [8-mer ATTTAAAC]
binding signal (PBM E-score (-0.5 to 0.5)) [1]: 0.484

CCCACGCA (double strand) [8-mer CCCACGCA]
binding signal (PBM E-score (-0.5 to 0.5)) [5]: 0.496
binding signal (PBM E-score (-0.5 to 0.5)) [6]: 0.488
binding signal (PBM E-score (-0.5 to 0.5)) [7]: 0.497

GAAGCCCC (double strand) [8-mer GAAGCCCC]
binding signal (PBM E-score (-0.5 to 0.5)) [8]: 0.492

GTTTAAAA (double strand) [8-mer GTTTAAAA]
binding signal (PBM E-score (-0.5 to 0.5)) [1]: 0.471

GTTTAAAC (double strand) [8-mer GTTTAAAC]
binding signal (PBM E-score (-0.5 to 0.5)) [3]: 0.494
binding signal (PBM E-score (-0.5 to 0.5)) [1]: 0.481

CGCCCCCA (double strand) [8-mer CGCCCCCA]
binding signal (PBM E-score (-0.5 to 0.5)) [5]: 0.493
binding signal (PBM E-score (-0.5 to 0.5)) [6]: 0.494

AGGGCTTC (double strand) [8-mer AGGGCTTC]
binding signal (PBM E-score (-0.5 to 0.5)) [8]: 0.497

AAGCTTAC (double strand) [8-mer AAGCTTAC]
binding signal (PBM E-score (-0.5 to 0.5)) [2]: 0.489
binding signal (PBM E-score (-0.5 to 0.5)) [9]: 0.485

GCCCACGC (double strand) [8-mer GCCCACGC]
binding signal (PBM E-score (-0.5 to 0.5)) [5]: 0.495
binding signal (PBM E-score (-0.5 to 0.5)) [7]: 0.485

CCCCCGCG (double strand) [8-mer CCCCCGCG]
binding signal (PBM E-score (-0.5 to 0.5)) [5]: 0.485
binding signal (PBM E-score (-0.5 to 0.5)) [7]: 0.488

CGGTAGCA (double strand) [8-mer CGGTAGCA]
binding signal (PBM E-score (-0.5 to 0.5)) [4]: 0.496

AGGGGGCG (double strand) [8-mer AGGGGGCG]
binding signal (PBM E-score (-0.5 to 0.5)) [5]: 0.486

AGAAGCCA (double strand) [8-mer AGAAGCCA]
binding signal (PBM E-score (-0.5 to 0.5)) [8]: 0.489

GCTACTGA (double strand) [8-mer GCTACTGA]
binding signal (PBM E-score (-0.5 to 0.5)) [4]: 0.486

ATTTAAAA (double strand) [8-mer ATTTAAAA]
binding signal (PBM E-score (-0.5 to 0.5)) [1]: 0.481

ACCCCCGC (double strand) [8-mer ACCCCCGC]
binding signal (PBM E-score (-0.5 to 0.5)) [5]: 0.485
binding signal (PBM E-score (-0.5 to 0.5)) [7]: 0.492

TTTAAAAA (double strand) [8-mer TTTAAAAA]
binding signal (PBM E-score (-0.5 to 0.5)) [1]: 0.48

AGCTAGCT (double strand) [8-mer AGCTAGCT]
binding signal (PBM E-score (-0.5 to 0.5)) [2]: 0.488

CGGTAGCC (double strand) [8-mer CGGTAGCC]
binding signal (PBM E-score (-0.5 to 0.5)) [4]: 0.485

AGCTACCG (double strand) [8-mer AGCTACCG]
binding signal (PBM E-score (-0.5 to 0.5)) [4]: 0.492

CCCACGCG (double strand) [8-mer CCCACGCG]
binding signal (PBM E-score (-0.5 to 0.5)) [5]: 0.486
binding signal (PBM E-score (-0.5 to 0.5)) [7]: 0.49

GGAAGCCC (double strand) [8-mer GGAAGCCC]
binding signal (PBM E-score (-0.5 to 0.5)) [8]: 0.495

AGGCTTCC (double strand) [8-mer AGGCTTCC]
binding signal (PBM E-score (-0.5 to 0.5)) [8]: 0.491

CCGGTAGC (double strand) [8-mer CCGGTAGC]
binding signal (PBM E-score (-0.5 to 0.5)) [4]: 0.496

CGCCCACG (double strand) [8-mer CGCCCACG]
binding signal (PBM E-score (-0.5 to 0.5)) [5]: 0.495
binding signal (PBM E-score (-0.5 to 0.5)) [6]: 0.492

AACAGTAG (double strand) [8-mer AACAGTAG]
binding signal (PBM E-score (-0.5 to 0.5)) [4]: 0.492

TGCTAGCA (double strand) [8-mer TGCTAGCA]
binding signal (PBM E-score (-0.5 to 0.5)) [2]: 0.48

CCAGTAGC (double strand) [8-mer CCAGTAGC]
binding signal (PBM E-score (-0.5 to 0.5)) [4]: 0.492

AAAGCTTA (double strand) [8-mer AAAGCTTA]
binding signal (PBM E-score (-0.5 to 0.5)) [2]: 0.481
binding signal (PBM E-score (-0.5 to 0.5)) [9]: 0.485

CCCCCGCA (double strand) [8-mer CCCCCGCA]
binding signal (PBM E-score (-0.5 to 0.5)) [5]: 0.495
binding signal (PBM E-score (-0.5 to 0.5)) [6]: 0.494
binding signal (PBM E-score (-0.5 to 0.5)) [7]: 0.497

AAGCTAGC (double strand) [8-mer AAGCTAGC]
binding signal (PBM E-score (-0.5 to 0.5)) [2]: 0.476

CAGTAGCG (double strand) [8-mer CAGTAGCG]
binding signal (PBM E-score (-0.5 to 0.5)) [4]: 0.488

CGCTACCG (double strand) [8-mer CGCTACCG]
binding signal (PBM E-score (-0.5 to 0.5)) [4]: 0.488

AATTTAAA (double strand) [8-mer AATTTAAA]
binding signal (PBM E-score (-0.5 to 0.5)) [1]: 0.497

ATGAAGCC (double strand) [8-mer ATGAAGCC]
binding signal (PBM E-score (-0.5 to 0.5)) [8]: 0.489

AAGCTTAT (double strand) [8-mer AAGCTTAT]
binding signal (PBM E-score (-0.5 to 0.5)) [2]: 0.487
binding signal (PBM E-score (-0.5 to 0.5)) [9]: 0.488

GTTTTAAA (double strand) [8-mer GTTTTAAA]
binding signal (PBM E-score (-0.5 to 0.5)) [1]: 0.478

GGGCTTCA (double strand) [8-mer GGGCTTCA]
binding signal (PBM E-score (-0.5 to 0.5)) [8]: 0.493
